Test results taken from PMC2744598.

How the values were obtained:
Ede1_rhodamine (yeast) = Ede1_rhodamine (yeast) (UniProt P34216); test: fluorescence polarisation
[1] = molecular target: GST-DRM2 UBA1 (Arabidopsis); test: SPR
GST-Ede1 UBA (yeast) = GST-Ede1 UBA (yeast) (UniProt P34216); test: SPR
GST-hHR23A UBA1 (human) = test: SPR
[2] = molecular target: Ddi1 UBA, fluorescent free domain (yeast) (UniProt P40087); test: fluorescence polarisation
[3] = molecular target: Dsk2 UBA, fluorescent free domain (yeast) (UniProt P48510); test: fluorescence polarisation
[4] = molecular target: fluorescein-labeled hHR23A-UBA1 (human); test: fluorescence polarisation
[5] = molecular target: GST-His/GST-Ede1 heterodimer of the functionally monomeric mixture (not stated | yeast) (UniProt P34216); test: SPR

Chain of GST-Ede1 UBA (yeast) (P34216 1338-1380): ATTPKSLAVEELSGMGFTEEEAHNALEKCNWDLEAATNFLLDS
Chain of Ede1_rhodamine (yeast) (P34216 1338-1380): as above
Chain of Ddi1 UBA, fluorescent free domain (yeast) (P40087 389-428): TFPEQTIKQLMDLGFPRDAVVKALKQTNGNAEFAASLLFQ
Chain of Dsk2 UBA, fluorescent free domain (yeast) (P48510 327-371): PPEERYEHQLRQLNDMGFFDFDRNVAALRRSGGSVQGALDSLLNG

Substance | Kd (Ede1_rhodamine (yeast)) [µM] | Kd [1] [µM] | Kd (GST-Ede1 UBA (yeast)) [µM] | Kd (GST-hHR23A UBA1 (human)) [µM] | Kd [2] [µM] | Kd [3] [µM] | Kd [4] [µM] | Kd [5] [µM]
K48-linked diubiquitin (from UniProt P0CG48 1-76) | 86 | 140 | 110 | 36 |  |  |  | 
K48-linked tetraubiquitin (from UniProt P0CG48 1-76) | 31 |  | 25 |  | 50 | 1.4 | 9 | 44
K63-linked diubiquitin (from UniProt P0CG48 1-76) | 120 | 89 | 48 | 26 |  |  |  | 
K63-linked tetraubiquitin (from UniProt P0CG48 1-76) | 54 |  | 6 | 4.7 | 92 | 2.2 | 30 | 23
